Measurements: article doi:10.1101/2020.05.11.089193 (bioRxiv, 2020)
Read-outs that look alike come from different tables or passages of the source.

B1: Flavobacterium johnsoniae GldL (natural protein, UniProt Q5EGM4 1-215, looked up)
chain: MALLSKKVMNFAYGMGAAVVIVGALFKITHFEIGPLTGTVMLSIGLLTEALIFALSAFEPVEDELDWTLVYPELANGQARKKEAKAETATDAQGLLSQKLDAMLKEAKVDGELMASLGNSIKNFEGAAKAISPTVDSIAGQKKYAEEMSMAAAQMESLNSLYKVQLESASRNAQANSEIAENAAKLKEQMASMTANIASLNSVYGGMLSAMSNKG
B2: Porphyromonas gingivalis ATCC 33277 PorM (natural protein, UniProt B2RLE8 1-516, looked up)
chain: MAVGSNGNANRQKMINLMYLVFIAMMALNVSSEVLDGFDKVDKSLTSSIDGSDKRNNLVLSELNTAYRTNPEKVKVWYERSLVLQKEADSLCTFIDDLKLAIARESDGKDAKVNDIRRKDNLDASSVVMLNPINGKGSTLRKEVDKFRELVATLMTDKAKLKLIEQALNTESGTKGKSWESSLFENMPTVAAITLLTKLQSDVRYAQGEVLADLVKSVDVGDYRVNSITAQVIPQSQIVMSGDTYKANIVLSSVDTTQRPDVFVNGKLLSPENMGLFTATAGAPGTYPVKGYIEMMGNDGVKIRRDFESEYFVTEPMASVAPTMMNVLYAGIDNPINIAVPGVAQQNVSATINNGTLTRRGNLWIARPTKVGSEAIISVTAQSGGRTIQMAKTTLRVRALPDPLPYIEYKDVQGNTKRFKGGRLGKREILAAGGIKAALDDDLLEVNYTVVKFQLVFYDSMGNSIPEVSDGASFSERQKRQIQNLGKGKRFYVTEVIARGPDGIERKIPAIEVIVN
B3: Flavobacterium johnsoniae GldM C-terminally truncated after the first folded periplasmic domain (first 225 amino acids) (domain or fragment, UniProt Q5EGM3 1-225, looked up)
chain: MAGGKLTPRQKMINLMYLVFIAMLAMNVSKEVISAFGLMNEKFEAANTSSVTTNESLLTSLDQKAAEAKGEFAKAAETAHKVQAASKEFYDYIGTLKTQAVKGFEVDKETGKMPYEAMDRGDNIDDWFTGDGYTKKGNEIIAKIEKYKSDIKAALGTDKKYAGIISEVEKKFDVSDVKNKEGIKEKYLAYHFKGFPAIASAAKLSAWQNDVKKTEADVYNSALGK

Tests used:
[1] = molecular target: the molecule itself; experiment: cryo-EM structure
[2] = molecular target: the molecule itself; experiment: cryo-EM structure; remark: listed apart in the source

| Protein | stoichiometry N [1] | stoichiometry N [2] |
| --- | --- | --- |
| B1 | 5 |  |
| B2 |  | 2 |
| B3 | 2 |  |
